Assay results published in patent US20170291930.

Experiments:
[1] = test system: T1, Hst-5 synthetic peptide K13L
T1 sequence: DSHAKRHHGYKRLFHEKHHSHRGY

[2] = test system: T2, Hst-5 synthetic peptide K17L
T2 sequence: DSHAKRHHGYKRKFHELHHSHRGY

[3] = test system: T3, Hst-5 synthetic peptide K17R
T3 sequence: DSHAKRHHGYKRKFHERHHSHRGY

purified recombinant Sap9 (C. albicans secreted aspartic protease 9)
cleavage site preference of Sap9 (mass spectrometry) [1]: K13L showed an apparent shift in cleavage site preference compared to the parent Hst-5. The fragments containing amino acids 1-12 and 13-24 had higher signals for K13L than the fragments containing amino acids 1-17 and 18-24
cleavage at the C-terminal side of residue 17 by Sap9 (mass spectrometry) [2]: while the parent Hst-5 was cleaved on the C-terminal side of K17, neither K17R nor K17L showed significant cleavage at this site
cleavage at the C-terminal side of residue 17 by Sap9 (mass spectrometry) [3]: while the parent Hst-5 was cleaved on the C-terminal side of K17, neither K17R nor K17L showed significant cleavage at this site
